Source: US20090291088A1 (Biogen, published 2009)

How the values were obtained:
[1] = molecular target: T1, Rhesus IGF-1R expressed on CHO cells (rhesus monkey, UniProt I2CWY3 31-1367); assay: flow cytometry and confocal microscopy, CHO transfectants
T1 construct: whole, on cells; also called Rhesus IGF-1R/CHO

[2] = molecular target: T2, human IGF-1R expressed on cells (human, UniProt P08069 31-1367); assay: cell-based or functional assay
human IGF-1R(1-903)-Fc [3] = molecular target: T3, human IGF-1R(1-903)-Fc (human, UniProt P08069 31-933); assay: competition ELISA: biotinylated hIGF-1R-Fc on streptavidin plate, 320 nM human IGF-2 His, detection with anti-His-HRP; blocked ligand human IGF-2 His
T3 construct: Made by Biogen Idec; Multimerises through IGF-1R and Fc; also called hIGF-1R-Fc; IGF-1R-Fc; not shown: C-terminal human IgG1-Fc tag

human IGF-1R(1-903)-Fc [4] = molecular target: T3, human IGF-1R(1-903)-Fc; assay: ELISA on hIGF-1R-Fc, competitor biotinylated M13-C06
[5] = molecular target: T4, murine IGF-1R expressed on cells (mouse, UniProt Q60751 31-1373); assay: binding to CHO transfectants
T4 construct: whole, on cells; also called mouse IGF-1R

human IGF-1R(1-903)-Fc [6] = molecular target: T3, human IGF-1R(1-903)-Fc; assay: ELISA, plate coated with soluble IGF-1 receptor Fc fusion protein, detection with anti-human kappa-HRP
Description: The plate was washed with phosphate-buffered saline (PBS, Irvine Scientific, Cat#9240), pH 7.4 plus 0.025% Tween 20 in the Skan Washer 300 (Skatron Instruments), blocked with buffer containing 1% nonfat milk, 0.05% Tween 20 in PBS, pH 7.4, and then incubated at room temperature for 1 hour. After incubation plate was washed with PBS plus 0.025% Tween 20 in the Skan Washer 300. […] Following a one hour incubation at room temperature, plate was washed with PBS plus 0.025% Tween 20 in the Skan Washer 300. […] Plate incubated for 1 hour at room temperature was washed with PBS plus 0.025% Tween 20 in the Skan Washer 300. […] The absorbance was measured at 450 nm, background 540 nm for TMB using the Molecular Devices plate reader. Data was analyzed using the SOFTMAX PRO software package version 4.3 LS (Molecular Devices Corp.).

[7] = molecular target: T5, human IGF-1R(1-902)-His10 (human, UniProt P08069 31-932); assay: SPR, antibody over captured IGF-1R-10His
T5 construct: Cy5-labelled in tr-FRET; also called hIGF-1R-His10; IGF-1R-His
Description: All surface plasmon resonance (SPR) experiments were performed on a Biacore 3000 set to 25° C. using HBS-EP (Biacore, Cat. No. BR-1001-88) as the running buffer. A biotin-labeled anti-HisTag antibody (biotin-PENTA-His, Qiagen Cat. No. 34440) was immobilized to saturation on a Biacore SA chip (Cat. No. BR-1000-32) surface by injection at 500 nM in HBS-EP buffer. […] Subsequent to IGF-1R injections, flow rates were increased to 20 μL/min. A second, 130 μL injection of anti-IGF-1R antibody or Fab was performed to investigate interactions with the receptor. Each antibody and Fab was serially diluted from 64 nM to 0.5 nM to obtain concentration dependent kinetic binding curves. Each injection series was regenerated using 3×10 μL injections of 10 mM Acetate, pH 4.0, at 20 μL/min. Each curve was double referenced using (1) data obtained from a streptavidin surface devoid of IGF-1R and (2) data from a primary injection of IGF-1R followed by a secondary injection of HBS-EP buffer. The concentration series for each antibody and Fab was fit to the 1:1 binding model provided within the BiaEvaluation software of the manufacturer.
The rates at which the antibodies accumulate on the IGF-1R coated surface when applied at various concentrations as well as the rates at which they dissociated during applications of pure buffer were investigated by fitting the data to a 1:1 binding model. Approximate kinetic rate constants and equilibrium dissociation constant were calculated (Table 14).

human IGF-1R(1-903)-Fc [8] = molecular target: T3, human IGF-1R(1-903)-Fc; assay: competition ELISA: biotinylated hIGF-1R-Fc on streptavidin plate, 320 nM human IGF-1 His, detection with anti-His-HRP; blocked ligand human IGF-1 His
Description: hIGF-1R-Fc was biotinylated using EZ-Link Sulfo-NHS-LC-Biotin according to the protocol provided by the manufacturer (Pierce Cat. No. 21335). Biotinylated human IGF-1R-Fc at 5 μg/ml was added to the wells of SigmaScreen streptavidin-coated 96-well plates (Sigma, Cat. No. M5432-5EA; Sigma-Aldrich Corp. (St. Louis, Mo., USA)) at 100 μL/well and incubated overnight at 2-8° C. The plates were then washed four times with 200 μL/well PBST. […] The dilutions were added to the plates in duplicate at 100 μL/well and the plates were incubated at RT for 1 hour. The plates were then washed four times with 200 μL/well PBST. An HRP-conjugated anti-Histag antibody (Penta-His HRP Conjugate, QIAGEN, Cat. No. 1014992) was diluted 1:1000 in PBST and added to plates at 100 μL/well, and the plates were incubated at RT for one hour. The plates were then washed four times with 200 μL/well PBST. SureBlue Reserve TMB Microwell Peroxidase Substrate (KPL, Cat. No. 53-00-01) was added to plates at 100 μL/well followed by 1% phosphoric acid at 100 μL/well once the desired reaction was observed. The absorbance of each well was determined at 450 nm, and the results were normalized and plotted against the log of antibody concentration.

[9] = molecular target: T2, human IGF-1R expressed on cells; assay: flow cytometry, MCF-7 cells
Description: The ability of Fabs to bind to the wild type IGF-1R was determined by flowcytometry using MCF-7 tumor cell line.
MCF-7 cells (Human Breast Adenocarcinoma from NCI) were split 24 hours prior to the setup of the assay to obtain 70% confluent monolayer. Routinely, MCF-7 cell line was maintained within 20 passages. Cells were lifted with cell dissociation buffer (Gibco catalog #13151-014), counted, washed and adjusted to 1×10⁶ cells/ml and one ml of cells were then added to each tube (12×75 mm tube Falcon catalog# 352054). Cells were pelleted and supernatant removed by centrifugation at 1200 rpm for 5 min and 100 μl of diluted antibodies were then added to the cell pellet. Purified Fabs were tested at a starting concentration of either 210 or 60 μg/ml with 1:3 dilutions in FACS buffer, down to 0.001 μg/ml. FACS buffer used throughout the assay was PBS (without Ca++/Mg++) containing 1% BSA (Sigma catalog# A-7906; Sigma-Aldrich Corp. (St. Louis, Mo., USA)) and 0.1% Sodium Azide (Sigma catalog #S2002). […] Samples were allowed to incubate on ice for 1 hour and 15 minutes then were washed with 2 ml FACS buffer and centrifuged at 1200 rpm for 5 minutes at 4° C. The supernatant was aspirated and 100 μl of the secondary detection antibody was added to each corresponding tube in FACS buffer. Samples were then incubated for 30 minutes on ice, in the dark. Cells were washed as described above, then, re-suspended in […] FACS buffer per tube/sample.
Cells were stained for live cell determination with Propidium Iodide staining solution (PI for dead cell exclusion; BD Pharmingen catalog# 51-66211E or 556463; use at 1:500 final in FACS buffer). Samples were run on the FACSCalibur instrument (Becton Dickinson) with 10,000 live events collected per sample.

[10] = molecular target: T5, human IGF-1R(1-902)-His10; assay: ELISA, plate coated with rh-IGF-1R, bound Fab detected with anti-human kappa-HRP
Description: (§1) ELISA assays were performed to determine specific binding of the Fab fragment antibodies to soluble IGF-1R over the insulin receptor. […] Color development was stopped by addition of 4NH₂SO₄ and optical density is measured at 450 nm using a Molecular Devices plate reader and binding curves are generated.

human INSR(28-956)-His10 [11] = molecular target: T6, human INSR(28-956)-His10 (human, UniProt P06213 28-956); assay: ELISA, plate coated with rh-INSR
T6 construct: range 28-956; Bought (R&D Systems 1544-IR); also called rh-INSR; soluble insulin receptor
Description: as §1

human INSR(28-956)-His10 [12] = molecular target: T6, human INSR(28-956)-His10; assay: ELISA on coated rh-INSR
Description: as §1

T1 sequence (I2CWY3 entry or part of it): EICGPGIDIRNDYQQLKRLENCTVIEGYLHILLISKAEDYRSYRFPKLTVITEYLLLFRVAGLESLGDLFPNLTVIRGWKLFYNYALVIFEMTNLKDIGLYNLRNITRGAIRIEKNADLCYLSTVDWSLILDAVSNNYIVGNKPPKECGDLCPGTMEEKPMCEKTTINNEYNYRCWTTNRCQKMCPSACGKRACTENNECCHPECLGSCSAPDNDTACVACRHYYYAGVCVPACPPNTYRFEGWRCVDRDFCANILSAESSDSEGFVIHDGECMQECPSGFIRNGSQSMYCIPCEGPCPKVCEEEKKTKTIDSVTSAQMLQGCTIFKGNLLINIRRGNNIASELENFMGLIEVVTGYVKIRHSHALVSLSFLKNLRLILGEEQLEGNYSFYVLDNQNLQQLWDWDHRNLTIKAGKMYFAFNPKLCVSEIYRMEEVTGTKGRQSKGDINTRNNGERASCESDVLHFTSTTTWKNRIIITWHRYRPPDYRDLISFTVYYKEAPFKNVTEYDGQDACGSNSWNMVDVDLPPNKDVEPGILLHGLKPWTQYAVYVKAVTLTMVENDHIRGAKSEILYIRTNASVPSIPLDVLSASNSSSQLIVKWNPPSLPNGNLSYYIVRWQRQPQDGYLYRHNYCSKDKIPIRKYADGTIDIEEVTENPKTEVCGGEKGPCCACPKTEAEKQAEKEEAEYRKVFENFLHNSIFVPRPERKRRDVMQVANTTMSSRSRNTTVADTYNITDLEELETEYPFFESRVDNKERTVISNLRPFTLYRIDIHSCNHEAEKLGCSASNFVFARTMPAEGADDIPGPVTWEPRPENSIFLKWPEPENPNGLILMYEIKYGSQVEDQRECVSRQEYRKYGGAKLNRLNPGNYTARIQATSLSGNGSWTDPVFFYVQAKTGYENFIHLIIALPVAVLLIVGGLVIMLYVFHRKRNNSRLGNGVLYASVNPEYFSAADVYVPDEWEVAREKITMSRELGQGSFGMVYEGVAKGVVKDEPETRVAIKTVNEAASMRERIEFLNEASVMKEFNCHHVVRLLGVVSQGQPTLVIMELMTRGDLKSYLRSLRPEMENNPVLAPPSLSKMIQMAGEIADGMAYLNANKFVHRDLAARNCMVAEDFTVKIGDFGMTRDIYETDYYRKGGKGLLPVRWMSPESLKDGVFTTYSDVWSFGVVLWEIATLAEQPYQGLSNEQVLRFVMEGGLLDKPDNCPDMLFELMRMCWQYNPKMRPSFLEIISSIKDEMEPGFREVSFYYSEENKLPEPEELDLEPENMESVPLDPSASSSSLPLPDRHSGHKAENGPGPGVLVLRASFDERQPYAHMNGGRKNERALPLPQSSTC
T4 sequence (Q60751 31-1373): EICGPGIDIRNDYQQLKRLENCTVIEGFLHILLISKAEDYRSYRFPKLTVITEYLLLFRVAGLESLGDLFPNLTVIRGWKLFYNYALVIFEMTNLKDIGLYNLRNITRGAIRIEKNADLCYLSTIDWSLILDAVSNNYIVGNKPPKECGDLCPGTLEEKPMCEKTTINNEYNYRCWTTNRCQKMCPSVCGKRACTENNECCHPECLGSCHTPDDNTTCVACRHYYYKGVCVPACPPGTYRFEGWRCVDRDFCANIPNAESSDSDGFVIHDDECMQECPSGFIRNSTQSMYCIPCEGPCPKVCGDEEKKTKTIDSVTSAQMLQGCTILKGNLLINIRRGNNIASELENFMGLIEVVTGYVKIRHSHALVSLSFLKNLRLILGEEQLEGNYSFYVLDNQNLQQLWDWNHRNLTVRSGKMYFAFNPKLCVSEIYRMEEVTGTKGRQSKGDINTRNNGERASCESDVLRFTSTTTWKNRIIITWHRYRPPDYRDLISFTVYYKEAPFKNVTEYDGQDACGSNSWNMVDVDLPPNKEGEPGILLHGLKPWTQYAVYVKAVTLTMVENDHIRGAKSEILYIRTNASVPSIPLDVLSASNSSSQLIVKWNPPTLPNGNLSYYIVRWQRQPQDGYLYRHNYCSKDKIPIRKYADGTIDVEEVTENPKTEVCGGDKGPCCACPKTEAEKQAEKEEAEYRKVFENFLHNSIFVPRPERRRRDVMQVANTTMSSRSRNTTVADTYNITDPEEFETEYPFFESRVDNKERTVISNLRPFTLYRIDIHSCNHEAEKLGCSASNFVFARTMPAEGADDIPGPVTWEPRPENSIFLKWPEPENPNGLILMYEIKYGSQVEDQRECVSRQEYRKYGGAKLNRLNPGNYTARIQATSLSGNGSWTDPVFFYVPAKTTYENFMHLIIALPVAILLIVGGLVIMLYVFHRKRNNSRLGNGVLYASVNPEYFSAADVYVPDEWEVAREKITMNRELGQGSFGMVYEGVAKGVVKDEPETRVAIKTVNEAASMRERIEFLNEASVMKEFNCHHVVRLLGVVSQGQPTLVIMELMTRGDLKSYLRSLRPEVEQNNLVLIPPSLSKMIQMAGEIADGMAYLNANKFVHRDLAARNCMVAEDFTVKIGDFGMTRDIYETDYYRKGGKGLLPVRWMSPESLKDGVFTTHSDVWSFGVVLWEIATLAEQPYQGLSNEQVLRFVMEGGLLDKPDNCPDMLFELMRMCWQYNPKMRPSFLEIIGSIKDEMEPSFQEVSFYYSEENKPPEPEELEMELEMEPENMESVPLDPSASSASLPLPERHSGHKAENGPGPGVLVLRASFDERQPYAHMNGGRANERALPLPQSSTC

B1: M14-C03.G4.P.agly (antibody, human IgG4 S228P, kappa, V domains shown)
VH: EVQLLESGGGLVQPGGSLRLSCAASGFTFSKYMMSWVRQAPGKGLEWVSYISPSGGLTWYADSVKGRFTISRDNSKNTLYLQMNSLRAEDTAVYYCARDGARGYGMDVWGQGTTVTVSS
VL: DIQMTQSPATLSLSPGERATLSCRASQSVSSYLAWYQQKPGQAPRLLIYDASNRATGIPARFSGSGSGTDFTLTISSLEPEDFAVYYCQQRSNWPPEVTFGPGTKVDIKR
notes: Full-length human aglycosylated IgG4.P, kappa; Places that say only 'M14-C03 antibody' were assigned to this version; also called M14-C03_Ab
Does B1 bind [1]?
Result: binds

And the “inhibition of IGF-1 and IGF-2 mediated IGF-1R receptor phosphorylation (EC50)” value [2]?
The value was under 1 nM.

And the “IC50 (read off the curve)” value (human IGF-1R(1-903)-Fc [3])?
Its value is about 1 nM.

And the “percent competition (relative to self-competition)” value (human IGF-1R(1-903)-Fc [4])?
Its value is 90 to 100%.

Does B1 bind [5]?
Result: binds

And the “EC50 (read off the curve)” value (human IGF-1R(1-903)-Fc [6])?
Its value is about 0.07 nM.

What about the Kd [7] of the same binder?
The Kd was 0.36 nM.

And the koff [7]?
Its koff is 0.0002 s⁻¹.

What about the kon [7] of the same binder?
Its kon is 570000 M⁻¹ s⁻¹.

What about the “IC50 (read off the curve)” value (human IGF-1R(1-903)-Fc [8]) of the same binder?
The value was about 5 nM.

B2: M14-B01 Fab (Fab, V domains shown)
VH: EVQLLESGGGLVQPGGSLRLSCAASGFTFSNYHMAWVRQAPGKGLEWVSVISPTGGRTTYADSVKGRFTISRDNSKNTLYLQMNSLRAEDTATYYCARAGYSYGYGYFDYWGQGTLVTVSS
VL: DIQMTQFPATLSVSPGERATLSCRASQSVMRNLAWYQQKPGQPPRLLIYGASKRATGIPARFSGSGSGTAFTLTISNLEPEDFAVYYCHQRSTWPLGTFGPGTKLEAK
notes: Human phage Fab, kappa
With B2 as the binder, how does the EC50 [9] read?
The EC50 was 29.4 nM.

What about the “EC50 (read off the curve)” value [10] of the same binder?
The value was about 6 nM.

Does B2 bind (human INSR(28-956)-His10 [11])?
Result: no binding (tested: about 20000 nM)

B3: M12-E01 Fab (Fab, V domains shown)
VH: EVQLLESGGGLVQPGGSLRLSCAASGFTFSPYSMLWVRQAPGKGLEWVSSIGSSGGSTRYADSVKGRFTISRDNSKNTLYLQMNSLRAEDTAMYYCARVRGILHYDILIGRNLYYYYMDVWGKGTTVTVSS
VL: QYELTQPPSVSEAPRQRVTISCSGSSSNIGNNAINWYQQLPGKPPKLLIYYDDLLPSGVSDRFSGSKSGTSGSLAISGLQSEDEADYYCAAWDDNLNGVIFGGGTKLTVL
Does B3 bind (human INSR(28-956)-His10 [12])?
Result: no binding (tested: 2 µM-0.2 nM)
